From publication PMC8389850, “The PilB-PilZ-FimX regulatory complex of the Type IV pilus from Xanthomonas citri” (PLoS Pathogens, 2021)
pKd: −log10 of the molar value.

Legend:
[1] = target: PilB_(12-163) (Xanthomonas citri pv. citri strain 306); assay: SEC-MALS
[2] = target: PilB_(1-190), His tag removed (Xanthomonas citri pv. citri strain 306); assay: SEC-MALS
[3] = target: full-length FimX (Xanthomonas citri pv. citri strain 306); assay: SEC-MALS; full-length proteins and complexes; silica-based WTC column 7.8/300; 50 mM Tris-HCl pH 8.0, 50 mM NaCl, 5 mM MgCl2; without and with ATPγS and/or c-di-GMP (1:2 protein to ligand)
[4] = target: PilZ_(W69_5OHW) (Xanthomonas citri pv. citri strain 306); assay: other fluorescence titration

Substance: PilZ (XAC1133), wild type, recombinant (from UniProt A0AAI7ZDW4 1-117) (natural protein)
- stoichiometry N [1]: 1
- stoichiometry N [2]: 1

Substance: full-length FimX (natural protein)
- stoichiometry N [3]: 2

Substance: FimXEAL (domain or fragment)
- pKd [4]: 6.70

Substance: His-tagged PilB_(1-190) (from UniProt A0AAI7ZH88 1-190) (domain or fragment)
- pKd [4]: > 8.39
